{"source": "patent US20040175758", "proteins": {"B1": {"name": "Recombinant FLAG-tagged human GPBP (expressed in yeast, FLAG-affinity purified) (protein)", "chain": "MSDNQSWNSSGSEEDPETESGPPVERCGVLSKWTNYIHGWQDRWVVLKNNALSYYKSEDETEYGCRGSICLSKAVITPHDFDECRFDISVNDSVWYLRAQDPDHRQQWIDAIEQHKTESGYGSESSLRRHGSMVSLVSGASGYSATSTSSFKKGHSLREKLAEMETFRDILCRQVDTLQKYFDACADAVSKDELQRDKVVEDDEDDFPTTRSDGDFLHSTNGNKEKLFPHVTPKGINGIDFKGEAITFKATTAGILATLSHCIELMVKREDSWQKRLDKETEKKRRTEEAYKNAMTELKKKSHFGGPDYEEGPNSLINEEEFFDAVEAALDRQDKIEEQSQSEKVRLHWPTSLPSGDAFSSVGTHRFVQKPYSRSSSMSSIDLVSASDDVHRFSSQVEEMVQNHMTYSLQDVGGDANWQLVVEEGEMKVYRREVEENGIVLDPLKATHAVKGVTGHEVCNYFWNVDVRNDWETTIENFHVVETLADNAIIIYQTHKRVWPASQRDVLYLSVIRKIPALTENDPETWIVCNFSVDHDSAPLNNRCVRAKINVAMICQTLVSPPEGNQEISRDNILCKITYVANVNPGGWAPASVLRAVAKREYPKFLKRFTSYVQEKTAGKPILF"}}, "target": "T1, Q2L, synthetic peptide Ac-LATLSHCIELMVKR-NH2 (L-amino acids)", "T1 chain": "LATLSHCIELMVKR", "data": [{"protein": "B1", "values": [{"measurement": "GPBP autophosphorylation in vitro", "value": "efficiently inhibited GPBP autophosphorylation"}]}]}
